Measured values: patent US20230149522A1, “POLYPEPTIDE FOR THE PROPHYLAXIS AND TREATMENT OF VIRAL INFECTIONS” (priority 2020, published 2023)
Like-named read-outs stand apart in the source and are kept apart here.

How the values were obtained:
[1] = tested on: LV(Luc)-CoV-2
[2] = tested on: VSV(Luc-eGFP)-G
[3] = tested on: LV(Luc)-MLV
[4] = tested on: VSV(Luc-eGFP)-CoV-2
[5] = tested on: LV(Luc)-CoV-2; assay: microbe, parasite or virus in culture; conditions: Severe acute respiratory syndrome coronavirus 2, Caco-2, read-out: IC50 LV(Luc)-CoV-2
[6] = tested on: VSV(Luc-eGFP)-CoV-2; assay: microbe, parasite or virus in culture; conditions: Vesicular stomatitis virus, Caco-2, read-out: IC50 VSV(Luc-eGFP)-CoV-2
[7] = tested on: LV(Luc)-G; assay type: cell-based, Vesicular Stomatitis Virus
[8] = tested on: Caco2 (colorectal carcinoma cells)
[9] = tested on: Caco2 (colorectal carcinoma cells); remark: listed apart in the source
[10] = read-out: IC50 VSV(Luc-eGFP)-CoV-2

Molecule | IC50 ([1]; 1 h) [nM] | IC50 ([2]; 2 h) [nM] | IC50 ([3]; 1 h) [nM] | IC50 ([4]; 2 h) [nM] | IC50 [5] [nM] | IC50 [6] [nM] | IC50 LV(Luc)-G [7] | IC50 LV(Luc)-MLV [3] | IC50 [7] [nM] | IC50 ([1]; read-out: IC50 LV(Luc)-CoV-2) [nM] | IC50 ([2]; read-out: IC50 VSV(Luc-eGFP)-G) [nM] | IC50 ([3]; read-out: IC50 LV(Luc)-MLV) [nM] | toxicity at the concentrations tested [8] | IC50 [4, 10] [nM] | toxicity at the concentrations tested [9]
CC[C@H](C)[C@H](NC(=O)[C@H](C)NC(=O)[C@H](CCC(=O)O)NC(=O)[C@H](CCC(=O)O)NC(=O)[C@H](CC(C)C)NC(=O)[C@H](CCCCN)NC(=O)[C@H](CCCCN)NC(=O)[C@H](CCSC)NC(=O)[C@H](CCC(=O)O)NC(=O)[C@H](Cc1ccc(O)cc1)NC(=O)[C@H](CCC(=O)O)NC(=O)[C@H](CC(C)C)NC(=O)[C@H](CC(=O)O)NC(=O)[C@H](CC(C)C)NC(=O)[C@H](Cc1ccccc1)NC(=O)[C@@H](NC(=O)[C@@H](NC(=O)[C@H](CC(N)=O)NC(=O)[C@@H](NC(=O)[C@H](CCC(N)=O)NC(=O)[C@H](CC(=O)O)NC(=O)[C@H](CC(C)C)NC(=O)[C@@H](N)CO)[C@@H](C)CC)C(C)C)[C@@H](C)O)C(=O)N[C@@H](CCCCN)C(=O)N[C@@H](CCCCN)C(=O)N[C@@H](CC(C)C)C(=O)N[C@@H](CCC(=O)O)C(=O)N[C@@H](CCC(=O)O)C(=O)N[C@@H](CO)C(=O)N[C@@H](Cc1ccc(O)cc1)C(=O)N[C@H](C(=O)N[C@@H](CC(=O)O)C(=O)N[C@@H](CC(C)C)C(=O)N[C@@H](CCCCN)C(=O)N[C@@H](CCC(=O)O)C(=O)N[C@@H](CC(C)C)C(=O)O)[C@@H](C)CC [EK1, reference compound] | 82.4 | > 20000 | > 20000 | 281 | – | – | – | – | – | – | – | – | – | – | –
CN(C)C(=O)COC(=O)Cc1ccc(OC(=O)c2ccc(NC(=N)N)cc2)cc1 [CM, camostat mesilate, reference compound] | – | – | – | – | 242 | 87.5 | unstable | unstable | – | – | – | – | – | – | –
LD2/3 (protein, human) ARHLARAPKATAPTELNCDDFKKGERDGDFICPDYYEAVCGTDGKTYDNRCALCAENAKTGSQIGVKSEGECKSSNPEQDVCSAFRPFVRDGRLGCTRENDPVLGPDGKTHGNKCAMCAELFLKEAENAKREGETRIRRN | – | – | – | – | – | – | – | – | 128 | 181 | 257 | 343 | toxic at the (two) maximum concentrations tested | 411 | –
LD6 (protein, human) ESGKATSYAELCNEYRKLVRNGKLACTRENDPIQGPDGKVHGNTCSMCEVFFQAEEEEKKKKEGESRNKR | – | – | – | – | – | – | – | unstable | 2150 | 1030 | 1610 | – | toxic at the (two) maximum concentrations tested | 4090 | toxic at the (two) maximum concentrations tested
LD15 (protein, human) EEDSPDSFSSLDSEMCKDYRVLPRIGYLCPKDLKPVCGDDGQTYNNPCMLCHENLIRQTNTHIRSTGKCEESSTPGTTAASMPPSDE | – | – | – | – | – | – | – | – | 545 | 956 | 1020 | 1270 | toxic at the (two) maximum concentrations tested | 1850 | –
